Measurements from article PMC8225817, “The mineralocorticoid receptor leads to increased expression of EGFR and T-type calcium channels that support HL-1 cell hypertrophy”.

B1: mMRE (-216G/-191C) (dsDNA)
DNA 1: GCAGCAGCCTCCGCCCCCCGCACGGTGTGAGCGCCCGCCGCGGCCGAGGCGGCCGGAGTCCCGAG
DNA 2: CTCGGGACTCCGGCCGCCTCGGCCGCGGCGGGCGCTCACACCGTGCGGGGGGCGGAGGCTGCTGC
B2: mMRE (-216G/-191A) (dsDNA)
DNA 1: GCAGCAGCCTCCGCCCCCCGCACGGTGTGAGCGCCCGACGCGGCCGAGGCGGCCGGAGTCCCGAG
DNA 2: CTCGGGACTCCGGCCGCCTCGGCCGCGTCGGGCGCTCACACCGTGCGGGGGGCGGAGGCTGCTGC

What was measured:
[1] = molecular target: T1, rhSP1 (specificity protein 1) (human, UniProt P08047 1-785); assay: EMSA; 10 mM Tris, 50 mM KCl, 5 mM MgCl2, 1 mM DTT, 5% glycerol, 1 mg/ml poly(dI-dC), 5 fmol probe, 30 min room temperature; pH not stated; details: protein: commercial; label: biotin
[2] = molecular target: T1, rhSP1 (specificity protein 1); assay: EMSA; same as -216G/-191C; 10 mM Tris, 50 mM KCl, 5 mM MgCl2, 1 mM DTT, 5% glycerol, 1 mg/ml poly(dI-dC), 5 fmol probe, 30 min room temperature; pH not stated; details: protein: commercial; label: biotin

T1 sequence (P08047 whole entry): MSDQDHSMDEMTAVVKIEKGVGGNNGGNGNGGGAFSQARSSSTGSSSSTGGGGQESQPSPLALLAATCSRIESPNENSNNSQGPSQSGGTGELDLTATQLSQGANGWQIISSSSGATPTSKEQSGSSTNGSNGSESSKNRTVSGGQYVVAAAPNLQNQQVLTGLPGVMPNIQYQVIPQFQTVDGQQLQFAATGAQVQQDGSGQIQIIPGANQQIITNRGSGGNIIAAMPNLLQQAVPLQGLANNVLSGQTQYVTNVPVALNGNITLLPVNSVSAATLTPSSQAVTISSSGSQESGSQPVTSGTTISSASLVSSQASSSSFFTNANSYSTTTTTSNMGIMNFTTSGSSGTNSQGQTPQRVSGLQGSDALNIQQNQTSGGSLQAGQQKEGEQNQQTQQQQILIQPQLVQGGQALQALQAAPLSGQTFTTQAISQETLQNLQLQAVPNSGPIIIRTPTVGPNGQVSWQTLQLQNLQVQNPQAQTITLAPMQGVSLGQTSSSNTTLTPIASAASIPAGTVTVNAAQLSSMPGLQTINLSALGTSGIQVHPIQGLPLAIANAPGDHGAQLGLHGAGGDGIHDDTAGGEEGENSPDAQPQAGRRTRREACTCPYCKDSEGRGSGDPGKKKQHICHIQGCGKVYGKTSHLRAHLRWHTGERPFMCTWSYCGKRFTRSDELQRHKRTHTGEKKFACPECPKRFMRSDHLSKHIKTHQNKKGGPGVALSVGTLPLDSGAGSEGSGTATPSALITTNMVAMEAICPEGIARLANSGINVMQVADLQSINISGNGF

Binder | binding result [1] | binding result [2]
B1 | binds | 
B2 |  | binds
